The results in this text go back to paper PMC13185157.

The target in this assay is GFP-LNX1. Briefly: flow cytometry on cells; α-GFP-Nb yeast incubated with lysates of HEK293 cells expressing FLAG-tagged partner plus GFP-LNX1 or GFP; washed once; anti-FLAG antibody; percent of positive cells.

Chain of FLAG-ZNF24 (P17028 whole entry): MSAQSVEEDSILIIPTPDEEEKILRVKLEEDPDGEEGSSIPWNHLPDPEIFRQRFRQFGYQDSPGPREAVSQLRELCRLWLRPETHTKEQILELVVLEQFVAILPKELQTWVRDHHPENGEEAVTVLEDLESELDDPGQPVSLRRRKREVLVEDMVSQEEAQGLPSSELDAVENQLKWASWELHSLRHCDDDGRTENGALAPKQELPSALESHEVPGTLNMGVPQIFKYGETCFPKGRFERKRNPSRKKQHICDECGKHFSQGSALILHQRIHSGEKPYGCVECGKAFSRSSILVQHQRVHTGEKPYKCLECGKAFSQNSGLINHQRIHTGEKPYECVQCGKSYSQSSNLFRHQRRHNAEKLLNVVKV
Chain of FLAG-NUMB (Q9QZS3 whole entry): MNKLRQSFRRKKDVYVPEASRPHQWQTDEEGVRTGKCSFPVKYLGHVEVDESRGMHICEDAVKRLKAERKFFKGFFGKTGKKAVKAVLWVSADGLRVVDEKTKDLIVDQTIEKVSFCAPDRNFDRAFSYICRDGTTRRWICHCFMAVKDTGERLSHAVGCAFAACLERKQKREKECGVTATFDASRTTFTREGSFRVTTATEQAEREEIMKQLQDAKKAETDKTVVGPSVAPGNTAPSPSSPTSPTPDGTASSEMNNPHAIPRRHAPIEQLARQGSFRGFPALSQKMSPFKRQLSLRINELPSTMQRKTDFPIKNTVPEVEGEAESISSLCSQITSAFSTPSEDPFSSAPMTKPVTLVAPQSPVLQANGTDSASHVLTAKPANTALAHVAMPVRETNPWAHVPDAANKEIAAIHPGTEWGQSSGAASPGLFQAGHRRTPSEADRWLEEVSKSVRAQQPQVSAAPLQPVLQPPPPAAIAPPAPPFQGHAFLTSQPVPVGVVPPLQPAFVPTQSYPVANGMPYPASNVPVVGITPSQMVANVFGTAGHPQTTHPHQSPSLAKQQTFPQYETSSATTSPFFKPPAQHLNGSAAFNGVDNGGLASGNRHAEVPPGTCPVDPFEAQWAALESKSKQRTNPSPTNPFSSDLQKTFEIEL
Chain of FLAG-Liprin-α1 (Q13136 whole entry): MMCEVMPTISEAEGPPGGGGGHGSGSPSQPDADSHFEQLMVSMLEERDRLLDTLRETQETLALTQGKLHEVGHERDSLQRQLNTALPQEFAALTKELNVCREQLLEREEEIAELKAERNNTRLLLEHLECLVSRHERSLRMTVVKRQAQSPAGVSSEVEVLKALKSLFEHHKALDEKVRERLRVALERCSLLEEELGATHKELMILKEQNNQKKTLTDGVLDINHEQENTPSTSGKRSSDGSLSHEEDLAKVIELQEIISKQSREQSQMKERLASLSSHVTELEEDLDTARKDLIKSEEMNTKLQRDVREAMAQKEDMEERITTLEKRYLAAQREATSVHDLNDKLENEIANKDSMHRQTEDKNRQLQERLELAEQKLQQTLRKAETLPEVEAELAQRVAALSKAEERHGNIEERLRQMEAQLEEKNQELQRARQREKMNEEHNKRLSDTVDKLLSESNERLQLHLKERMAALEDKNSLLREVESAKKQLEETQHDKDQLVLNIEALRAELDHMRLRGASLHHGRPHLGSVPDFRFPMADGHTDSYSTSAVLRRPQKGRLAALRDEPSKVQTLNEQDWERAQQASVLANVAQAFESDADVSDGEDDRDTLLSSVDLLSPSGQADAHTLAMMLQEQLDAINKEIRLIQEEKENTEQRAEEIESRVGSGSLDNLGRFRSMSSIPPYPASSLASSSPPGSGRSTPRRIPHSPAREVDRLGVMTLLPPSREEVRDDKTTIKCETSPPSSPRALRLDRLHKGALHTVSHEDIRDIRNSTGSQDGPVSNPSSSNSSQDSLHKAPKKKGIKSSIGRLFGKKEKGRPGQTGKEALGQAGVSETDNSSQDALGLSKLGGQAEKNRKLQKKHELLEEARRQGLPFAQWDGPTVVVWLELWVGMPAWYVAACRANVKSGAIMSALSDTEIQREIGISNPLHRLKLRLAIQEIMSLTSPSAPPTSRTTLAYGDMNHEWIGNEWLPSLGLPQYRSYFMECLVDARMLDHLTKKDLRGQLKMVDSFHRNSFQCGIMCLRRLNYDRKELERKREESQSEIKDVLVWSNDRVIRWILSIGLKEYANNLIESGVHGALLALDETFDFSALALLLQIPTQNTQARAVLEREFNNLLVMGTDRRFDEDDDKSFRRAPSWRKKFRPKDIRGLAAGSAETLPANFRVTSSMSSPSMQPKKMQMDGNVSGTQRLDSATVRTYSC

Turning to “FLAG-Liprin-α1 (from UniProt Q13136 1-1202) (natural protein)”, the percent of cells positively labelled with anti-FLAG antibody came out at 30%.

As to “FLAG-NUMB (from UniProt Q9QZS3 1-653) (natural protein)”, the percent of cells positively labelled with anti-FLAG antibody came out at 10%.

Take “FLAG-ZNF24 (from UniProt P17028 1-368) (natural protein)”: the percent of FLAG positive cells was 77%.
